Reference: publication PMC12343972 (Nature Communications, 2025)
Where a chain is given by its changes, count along the chain named.

How the values were obtained:
[1] = molecular target: T1, Rad50-R1201A (Saccharomyces cerevisiae, UniProt P12753 1-1312, R1201A); experiment: EMSA
T1 sequence: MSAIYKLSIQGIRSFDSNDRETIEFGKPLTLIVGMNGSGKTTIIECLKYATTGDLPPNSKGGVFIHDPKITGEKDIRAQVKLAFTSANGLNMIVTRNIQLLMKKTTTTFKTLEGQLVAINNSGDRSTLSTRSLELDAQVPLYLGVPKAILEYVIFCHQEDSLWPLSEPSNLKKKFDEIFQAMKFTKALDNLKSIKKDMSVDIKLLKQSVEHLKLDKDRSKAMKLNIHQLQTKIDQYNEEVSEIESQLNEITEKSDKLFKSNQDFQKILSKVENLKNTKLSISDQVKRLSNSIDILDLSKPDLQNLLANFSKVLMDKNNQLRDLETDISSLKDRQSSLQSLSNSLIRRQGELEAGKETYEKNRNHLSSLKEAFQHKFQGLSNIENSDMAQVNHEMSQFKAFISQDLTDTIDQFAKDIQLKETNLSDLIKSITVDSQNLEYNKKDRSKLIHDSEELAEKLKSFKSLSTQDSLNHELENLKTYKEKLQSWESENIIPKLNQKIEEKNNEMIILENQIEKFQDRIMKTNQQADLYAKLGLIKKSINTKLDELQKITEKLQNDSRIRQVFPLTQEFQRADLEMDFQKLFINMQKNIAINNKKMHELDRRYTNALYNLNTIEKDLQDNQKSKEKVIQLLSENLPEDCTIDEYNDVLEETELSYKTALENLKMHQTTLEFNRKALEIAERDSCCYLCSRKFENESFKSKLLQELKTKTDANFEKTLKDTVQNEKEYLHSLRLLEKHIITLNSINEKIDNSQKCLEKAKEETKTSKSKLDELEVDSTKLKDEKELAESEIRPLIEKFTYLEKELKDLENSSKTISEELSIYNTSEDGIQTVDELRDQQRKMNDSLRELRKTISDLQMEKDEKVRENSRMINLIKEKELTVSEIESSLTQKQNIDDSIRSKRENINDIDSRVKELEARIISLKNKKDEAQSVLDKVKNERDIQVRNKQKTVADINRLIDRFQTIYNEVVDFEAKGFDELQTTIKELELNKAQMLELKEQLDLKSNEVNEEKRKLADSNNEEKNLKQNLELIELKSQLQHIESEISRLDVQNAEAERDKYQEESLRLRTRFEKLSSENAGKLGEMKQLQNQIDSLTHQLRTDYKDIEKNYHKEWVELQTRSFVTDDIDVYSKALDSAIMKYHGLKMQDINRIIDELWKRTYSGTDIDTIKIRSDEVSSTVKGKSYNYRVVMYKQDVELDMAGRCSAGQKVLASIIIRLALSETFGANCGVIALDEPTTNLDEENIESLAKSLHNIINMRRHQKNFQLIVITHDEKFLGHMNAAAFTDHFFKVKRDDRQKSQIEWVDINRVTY

[2] = molecular target: T2, Rad50-K173A K174A (Saccharomyces cerevisiae, UniProt P12753 1-1312, K173A;K174A); experiment: EMSA
T2 sequence: T1 sequence with K173A, K174A, A1201R

B1: 83-mer dsDNA (EMSA) (dsDNA)
DNA 1: TTGATAAGAGGTCATTTTTGCGGATGGCTTAGAGCTTAATTGCTGAATCTGGTGCTGTAGCTCAACATGTTTTAAATATGCAA
DNA 2: TTGCATATTTAAAACATGTTGAGCTACAGCACCAGATTCAGCAATTAAGCTCTAAGCCATCCGCAAAAATGACCTCTTATCAA
**Q.** Which results are given for B1?
**A.** binding result [1]: binds; binding result [2]: binds
